Consider three molecules from patent US20090123480A1 (REGENTS OF THE UNIVERSITY OF MICHIGAN, published 2009).

Non-standard residues stand in square brackets, D forms with d. No end group written: not given here. *: point of attachment. 5FAM = O=C1OC2(c3ccc(O)cc3Oc3cc(O)ccc32)c2ccc(C(=O)*)cc21; Abu = CC[C@H](N)C(=O)O Where only a bound is given, the exact number is not on record here.

One assay deals with caspase-3 (UniProt P42574). The assay is described as follows: cell-based or functional assay.
The target in another assay is caspase-7 (UniProt P55210). As to the kind of experiment: cell-based or functional assay.
In assay [1] the target is human XIAP protein (residues 120-356) (human) (UniProt P98170). As to the kind of experiment: fluorescence polarization competition against the Smac2-F tracer.
In assay [2] the target is T1, recombinant XIAP BIR3 protein of human XIAP (residues 241-356) fused to His-tag (human, UniProt P98170 241-356).
T1 construct: range 241-356; not shown: His-tag
As to the kind of experiment: fluorescence polarization, direct binding of the labelled peptide.

Chain of caspase-7 (P55210 24-303 limits assumed): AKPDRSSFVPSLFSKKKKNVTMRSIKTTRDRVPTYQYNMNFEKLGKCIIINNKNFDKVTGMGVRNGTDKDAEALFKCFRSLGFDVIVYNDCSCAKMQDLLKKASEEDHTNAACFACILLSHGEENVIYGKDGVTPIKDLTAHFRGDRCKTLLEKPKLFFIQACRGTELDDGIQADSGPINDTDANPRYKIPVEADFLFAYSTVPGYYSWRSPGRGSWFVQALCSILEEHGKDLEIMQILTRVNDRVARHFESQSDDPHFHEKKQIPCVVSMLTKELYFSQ
T1 sequence (P98170 241-356 limits assumed): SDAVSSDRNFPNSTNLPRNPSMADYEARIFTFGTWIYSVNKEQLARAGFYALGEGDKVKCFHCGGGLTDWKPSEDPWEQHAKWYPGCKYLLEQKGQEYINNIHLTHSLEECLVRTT
Chain of human XIAP protein (residues 120-356) (human) (P98170 120-356 limits assumed): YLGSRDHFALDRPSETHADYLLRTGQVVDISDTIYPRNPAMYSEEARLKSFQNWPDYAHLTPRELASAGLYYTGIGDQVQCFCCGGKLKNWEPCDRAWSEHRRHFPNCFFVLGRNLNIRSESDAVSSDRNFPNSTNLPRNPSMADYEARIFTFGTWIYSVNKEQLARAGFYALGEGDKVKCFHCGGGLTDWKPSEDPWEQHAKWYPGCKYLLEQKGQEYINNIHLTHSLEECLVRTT
Chain of caspase-3 (P42574 29-277 limits assumed): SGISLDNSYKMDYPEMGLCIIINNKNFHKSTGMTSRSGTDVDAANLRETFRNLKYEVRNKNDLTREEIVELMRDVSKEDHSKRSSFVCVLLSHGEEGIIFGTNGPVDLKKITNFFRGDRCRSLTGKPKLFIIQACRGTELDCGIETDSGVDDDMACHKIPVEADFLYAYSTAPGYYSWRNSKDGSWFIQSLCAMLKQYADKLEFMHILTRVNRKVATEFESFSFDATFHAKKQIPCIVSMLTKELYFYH

As to “human XIAP protein (residues 120-356) (from UniProt P98170 120-356)”, the inhibition of caspase-3/-7 activity, cell-free functional assay with caspase-3 and with caspase-7 was 50 nM each time.

“natural Smac peptide AVPI (SEQ ID NO: 1)”: the fold less potent than the small molecule SH-164 (IC50 […] nM) in the competitive binding assay in assay [1] was greater than 5000 fold.

B1: mutated Smac peptide AbuRPF-K-(5-Fam)-NH2 (termed SM5F) (peptide)
peptide: [Abu]RPFK(5FAM)-NH2
modifications: N-terminus assumed
SMILES: CC[C@H](N)C(=O)N[C@@H](CCCNC(=N)N)C(=O)N1CCC[C@H]1C(=O)N[C@@H](Cc1ccccc1)C(=O)N[C@@H](CCCCNC(=O)c1ccc2c(c1)C(=O)OC21c2ccc(O)cc2Oc2cc(O)ccc21)C(N)=O
notes: Fluorescent tracer of the XIAP BIR3 fluorescence polarization assay; also called SM5F peptide
Consider B1, for which the Kd in assay [2] was determined as 17.9 nM.
